Results taken from patent US11781164B2, “Demethylation of reticuline and derivatives thereof with fungal cytochrome P450” (priority 2017, dated 2023).

B1: CYPDN20: cytochrome P450 homolog A0A163A6R1 from Phycomyces blakesleeanus, codon-optimized (protein, listed as Phycomyces biakesleeanus)
chain: MCLFFCKKVYDFTAVPYELKKFPNIPFFYFVKSILSVESVENRTKRLVLPLLHKNNGFYVSRFPFYWTVFTTDPDAVQYLLMKGEIFPKDTRFTSAVSKDSLIIRLFGSSNVAFISGEPLKHQCRTMNPAFRRTAPVNIFGRLIPDMFRLIDKSDGDILIVNLLQRMTFDALGKALFGFDFKTMKEDNSAWMTAYSDAMSGVTAPVLNIIPSLEYILRYFYPNYTKAKNGVDKLNRLILELVNKKKQELEESMPQSCSNNNNGDTDGDAYDQEKDLLTLILEAEMKDNKSSGSDDLRANMATFIMAGHETTASSVSFCIYHMVINKDVRDKARREALDILGYDDFISPPTFDECKRVNYINMVVKEALRLCTPGGLLFERIATEDVFLSGVFIPKGTRISVDIEALHKNPAIWKNPSVFDPERFSKGGEHEQHRGITWAPFSDGNRKCLGINFSMTEQQVILLMLLKHYEWDLSENSIHNNGMVYDNVFSFAPKTLSIKFHKRH
B2: CYPDN27: cytochrome P450 homolog A0A077WLY1 from Lichtheimia ramosa, codon-optimized (protein, listed as Licthheimia ramosa)
chain: MPSLIPKNASDAIEQYISRLKTMDRRHMGIIAGSVAVVSLYTFYRHLTRSRDDIPLVPYTWPLIGSTPSFNRDPVAFVEKWSQEYGPVFRAHLQGRIQTIIAAEYVRDIFMNSDFDFLFAVNKRFDPHLLADIDDNTFTTEMLRKVVMKLTTQLKSYTPRAVEFLDVGRNEFLSHFPAGPVHLPHLYPLIQHMVGKASAAIFAGTKLASNPEVVESFKNITLEVGAEIAVDSVFLERYWGLNRFRMWLMGKFSKSMKRHHRVLKDALRPEIKDRIEASSDPSRERPDDMLQIIIESYYTERRGESVDDLTEDLVKWLISLIFAAIHTTSENSTVVLYRILSKPDVVEELLEEQREVLVRHGISPDEKDPSKMFTGAVIKDLVKLDSACREGMRMRNDYLTLGHTYLGKKPITLSCGAVIKPGEDVIINTWYNHRNNKIQKIQGDDYSNYNPFRFVGSDRQAARIGDDFLIFGEGKHACPGRWFALQEMKTIISFLIRDYKMAPEGPITFPKNPKMTLPMGQVILESRH
B3: CYPDN28: cytochrome P450 homolog A0A1X2HYB6 from Absidia repens, codon-optimized (protein, listed as Absidia repens)
chain: MLTQYIHQFFNNFDQKKTMDQLQSVASSKDGVIGIATALILISGVAAYKSSTVERGCPQVPCGTFSFGSTSEYRENPVAFVKKWEEKLGPVFGAQLFGQYATIVSGPQVREIFSNENFSFMAGIQRDFDTYLLANGGSIHDLPPHVVSGGIKKNLSPKLPFYTSRVIEHLKIGLYEQCGVVPDEGKEFDHVYPFVQHMVAKASASVFVGPELAKDLNLVDSFKNMVLEVGSDMGPKPYLEHFPHLMRLRMWYIGKTSTNVKRHRDQLFAALVPQIDSRLKAMKEKDSNWDRPNDFLQDILETDDCPPHMDIYSYCVDWMTQIIFAALHTTSENGTIVLYRLLDNPKVLEELYEEQNAVLEEAGYDDTVGPEVFTREILNKFVKMDSVIRESCRLRNDYIGLPHTNVGKKTIVLSGGAMIRPGENAFVNFYSNHRDEKLQKSGMNANNFEPYRFVDQGKNSTKIGDDFMFFGMFKHACPGRWFAIQEIKTILAMLIRSYKMSAIDSVVFPTSDYTRIPTGRFKIVPRK
B4: CYPDN18: cytochrome P450 homolog A0A0C9MNJ6 from Mucor ambiguus, codon-optimized (protein, listed as Mucor ambiguus)
chain: MYSTASYNQTLERVVSVVRKNKTSYIGMAILCVVLQQIYSSFAVPPKHLRRFPKVSFMELMKSFYKKESVMNRNKRLVTPLTNAGHGFYISRIPLDWTIYVTDPIAAKTLLLKTDNFPKSHAIFGALGESSPVVKFMGNENVAVSNDILWRKQRKIMNPAFHRSQPVKVFGGVMPDLFALIDQDPEHVFITPKIKSFALDALGLSAFGFDFQSLKNDPEGWTSKYNTVVSSLFNPFVNLFAKCDFLIKYISAERRRVIKVTDEFNAMLSNLADKRRQEIMNGEKKNIAENEKDLLTLMIEADTREGVETTTTELRHNMAIFFLAGHDTTANTLALCLYQLAKHKHVQKKARQEVLDILGDDPWDVAPSLEDLKKLNYLNMVIKENLRRNGPVDNLMSRDTQQDINLNGTFIPKGSKVVINVASIHLNPKIWHNPESFIPERFEQGGEFDSHDGFTWLPFSNGSRQCLGLNFSLTEQRVALCMLLKRYEIDIPKDSIHYDEIVFDKAFTFAPQSLELSFKKRY
B5: CYPDN21: cytochrome P450 homolog XM_018432503 from Phycomyces blakesleeanus, codon-optimized (protein, listed as Phycomyces biakesleeanus)
chain: MLAKKVNGYAGFTLDAIQTIYFNRAIKLVRPPKALSHIPHVPYFSYMSSLIKKENTISRNKRFANKLFEDPESNGLYLRPNVKGWEVVVTRPEDAKKLLFKSDIFPKADFTSGIDGTILSKFSRGPNLLFTTGAHWKAQRMVANPAFHRSAPVKLFGELTQKLFRVMDNRANKTVDITRLMEAWALDAIGLAGFDFDFNAIENPNSSWVRIYERVDKALVHPFYSFFPKADKYLLWVLPNRKQAHTDLDIFLKMIDNVIIAKKKALHENKSNKHLENSEKDLLTLMLESEAKGSTLSAKELRSNMCVFFAAGHETTANSLAYAIYFMAVNPDVQCKAREEAFKVLGDAQEDIMPTIEQTKSMDYINAVIKETLRSHSPALGTFARKATKDTELGGVLIPKDTMISMDIFNLHHNPNVWNNPDEFDPSRFLPGGEAEKQINNGFSWIPFGTGARQCIGMNFSLIEQRVMLSMMLRKFAWSLPEDSIHKDYLHTTNLVISSAKDLNINFEKLY
B6: CYPDN22: cytochrome P450 homolog XM_023609077 from Rhizopus microsporus, codon-optimized (protein, listed as Rhizopus microsporus)
chain: MAISFLYREGPAERLKRLKLPAMRKGNGFYLSRVPFCWTVYVANPIAAKQLLLKAENFPKSHFLMVGKDSPFVQFLGPDNVVNSNGENWKKQRKVMNPAFHRSMPVKTIAGVVLTLFAVIDKYKGKVPVTSTMQEFTLDVLGLAIFNFDFGSLKGDAKKWRAEYKLVMLFDPVTNVFTGFDFLLRYIYPKRIKGANAVNNLNKLFDQLVKQKRLEVQSGVHANKPQNEKDLLTLMLEAEQRGEAMTTDMEMRHNVAVFFLAGHESTAHVLSFTLYFLAKNKYVQQKLREEVSRVMGRKSVDVAPTLEELRQMEYLYAVIKESLRLCSIFDVLILRDAVEDMYLDDTFIPKGTRITIDVSAIQRDPKVWNNPDDFIPERFMEGGEAEGHEGMTWLPFGGGARQCIGMNFSLTEQKVALAMLVQRYDIDVPKDSIHYEDIAYERPFYLAPQSLELTFTKLH
B7: CYPDN24: cytochrome P450 homolog A0A077WFB8 from Lichtheimia ramosa, codon-optimized (protein, listed as Lichtheimia ramosa)
chain: MDNQTWSSVPGASFWKGKLVSGHYVREVFLNNDFDFLKGTGKRFDTLLLTDTTTQDVDIEVFRTVVMKHLTKEMKAYTPRVVQHLTAGGDEKLGDAKEPQELVHLFPLLQHMVAKASASIFVGTELASDDDVVETCKNIAIDIGSELGPGSYIMDAFPSLARLRMWYIGKFGKAINKHRQHLLRALGPVIDKRLAAAEKGGDWDRPQDILQDIIETINLTLDNPKRHILPVKWLLALFFASIHTTSENSTIVLYRIMQNPEIIDVLLEEQNQVLEKHYGSNIDYSDTTKLFTGEVIKELVKLDSLCREAMRARNSYLELPHTYVGKSRITLSCGAIIEPGHDVLINMWGNHRDAKIQRDTIGDHHDFKPFRFVGLDRQSTKIGDDFLMFGQGRHACPGRWFAIQEIKTIVSVLIRYYKLTPNGPITFPTHPRMPMPMGQVIIQRRQ

These molecules were tested on thebaine (assay: Demethylation of thebaine by new cytochrome P450 fungal and plant homologs co-expressed with CPRs in S. cerevisiae). Details: 0.5 mM thebaine, SC or DELFT media pH 7, 72 h, 30° C.; co-expressed with Cel_CPR_co, Tp_CPR_5866, Tp_CPR_DN10898 or POR1.
B1 was tested, and the Northebaine production was “+”.
B2 was tested, and the Northebaine production was “+”.
B3 was tested, and the Northebaine production was “+”.
In the case of B4, the Northebaine production is reported as “+”.
In the case of B5, the Northebaine production is reported as “+”.
With B6 the Northebaine production was “+”.
For B7, the Northebaine production was “+”.
